From publication doi:10.1101/671156 come the findings set out here.

For assay [1], the target named is CoAA YxxQ repeats, 307-545 (UniProt Q96PK6). The experiment in a line: plate-coated GST-YxxQ, biotin peptide, streptavidin-HRP. The conditions noted are these: reference: unphosphorylated CTD peptide.
The target of assay [2] is biotin-labeled YxxQ diheptad peptide (human) (UniProt Q96PK6). Put plainly: ELISA. As to conditions: domain or fragment.

Sequence of CoAA YxxQ repeats, 307-545 (Q96PK6 whole entry, looked up, the tested form may be a part): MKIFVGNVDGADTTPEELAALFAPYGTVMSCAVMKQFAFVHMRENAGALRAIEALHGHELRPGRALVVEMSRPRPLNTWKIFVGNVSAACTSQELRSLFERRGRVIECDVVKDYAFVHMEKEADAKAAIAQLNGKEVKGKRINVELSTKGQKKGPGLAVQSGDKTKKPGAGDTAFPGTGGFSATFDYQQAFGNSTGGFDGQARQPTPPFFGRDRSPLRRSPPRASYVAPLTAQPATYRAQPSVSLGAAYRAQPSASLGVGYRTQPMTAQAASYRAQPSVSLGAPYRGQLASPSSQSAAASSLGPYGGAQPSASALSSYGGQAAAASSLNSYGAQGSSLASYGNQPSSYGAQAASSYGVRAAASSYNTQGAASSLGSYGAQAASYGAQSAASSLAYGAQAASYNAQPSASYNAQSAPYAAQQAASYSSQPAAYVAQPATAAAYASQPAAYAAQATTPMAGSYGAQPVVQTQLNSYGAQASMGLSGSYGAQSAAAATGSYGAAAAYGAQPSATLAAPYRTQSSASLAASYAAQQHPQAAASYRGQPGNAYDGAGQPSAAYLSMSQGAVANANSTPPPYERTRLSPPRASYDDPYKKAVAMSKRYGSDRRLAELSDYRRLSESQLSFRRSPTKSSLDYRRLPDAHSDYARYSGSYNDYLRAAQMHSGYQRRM
Sequence of GST-CTD-AA (not phosphorylated, coated on plate) (P04050 whole entry, looked up): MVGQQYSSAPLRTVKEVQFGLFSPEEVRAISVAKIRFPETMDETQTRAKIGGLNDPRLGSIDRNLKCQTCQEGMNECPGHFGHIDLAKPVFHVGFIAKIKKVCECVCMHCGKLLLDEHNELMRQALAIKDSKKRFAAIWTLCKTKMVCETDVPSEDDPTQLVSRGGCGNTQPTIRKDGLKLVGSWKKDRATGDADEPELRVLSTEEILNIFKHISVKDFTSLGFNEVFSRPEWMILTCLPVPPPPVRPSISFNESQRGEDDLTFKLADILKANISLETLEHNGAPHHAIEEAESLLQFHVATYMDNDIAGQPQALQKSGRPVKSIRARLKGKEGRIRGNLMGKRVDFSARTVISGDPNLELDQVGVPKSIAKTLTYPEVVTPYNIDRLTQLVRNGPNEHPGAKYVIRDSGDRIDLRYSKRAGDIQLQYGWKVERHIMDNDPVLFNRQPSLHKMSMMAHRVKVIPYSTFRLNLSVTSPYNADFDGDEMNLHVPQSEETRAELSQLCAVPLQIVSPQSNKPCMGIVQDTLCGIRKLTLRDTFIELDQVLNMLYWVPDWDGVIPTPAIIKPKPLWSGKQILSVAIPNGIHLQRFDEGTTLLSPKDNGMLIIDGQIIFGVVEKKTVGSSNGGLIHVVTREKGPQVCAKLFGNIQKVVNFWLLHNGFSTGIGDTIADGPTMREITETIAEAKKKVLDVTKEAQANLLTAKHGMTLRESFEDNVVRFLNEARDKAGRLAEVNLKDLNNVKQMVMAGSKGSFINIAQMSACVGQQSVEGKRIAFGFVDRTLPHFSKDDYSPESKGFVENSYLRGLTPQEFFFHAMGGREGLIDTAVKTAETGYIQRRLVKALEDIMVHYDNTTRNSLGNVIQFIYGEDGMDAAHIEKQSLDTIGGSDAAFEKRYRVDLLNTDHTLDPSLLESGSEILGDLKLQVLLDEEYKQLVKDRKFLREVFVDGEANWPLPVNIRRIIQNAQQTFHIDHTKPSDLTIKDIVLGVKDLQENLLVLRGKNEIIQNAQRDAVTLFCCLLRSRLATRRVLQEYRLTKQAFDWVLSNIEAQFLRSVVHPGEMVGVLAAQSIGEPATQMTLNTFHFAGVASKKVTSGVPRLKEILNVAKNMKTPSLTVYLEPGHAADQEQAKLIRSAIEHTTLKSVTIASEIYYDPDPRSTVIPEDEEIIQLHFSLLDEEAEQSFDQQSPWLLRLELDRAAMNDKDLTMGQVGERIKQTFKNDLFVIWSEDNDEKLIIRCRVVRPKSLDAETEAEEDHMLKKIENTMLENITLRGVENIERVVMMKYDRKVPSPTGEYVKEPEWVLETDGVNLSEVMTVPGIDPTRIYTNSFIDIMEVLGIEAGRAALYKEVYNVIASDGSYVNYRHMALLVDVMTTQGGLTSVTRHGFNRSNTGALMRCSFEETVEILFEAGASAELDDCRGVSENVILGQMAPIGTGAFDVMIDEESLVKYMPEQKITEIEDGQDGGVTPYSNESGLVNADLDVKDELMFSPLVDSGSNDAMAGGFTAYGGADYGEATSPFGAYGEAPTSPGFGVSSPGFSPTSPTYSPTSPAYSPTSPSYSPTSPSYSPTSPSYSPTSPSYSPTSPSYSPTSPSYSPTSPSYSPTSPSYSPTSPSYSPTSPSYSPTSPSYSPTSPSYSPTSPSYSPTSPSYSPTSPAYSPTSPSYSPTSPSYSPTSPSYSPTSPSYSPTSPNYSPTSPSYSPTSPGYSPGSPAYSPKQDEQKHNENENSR

Regarding “RNA polymerase II largest subunit CTD pSer2 CTD peptide”, the EC50 entry in assay [1] (sites S2) is reported as “stronger; reference 1066”.
On to “RNA polymerase II largest subunit CTD pSer5 CTD peptide”, for which, in assay [1] (sites S5), the half-maximal effective concentration (EC50) result was “stronger; reference 1066”.
The substance “GST-CTD-AA (not phosphorylated, coated on plate) (from UniProt P04050)” came in with an EC50 in assay [2] of 2430 nM.
